Experimental data: US20050261190A1 (SK, published 2005)

What was measured:
[1] = target: T1, polyubiquitin chains (Ub2-7), synthetic Lys48-linked (UniProt P0CG47 1-76, units linked by Lys48 isopeptide bonds); experiment: GST pull-down, immunoblot with anti-ubiquitin
T1 construct: A mixture of chains of 2 to 7 ubiquitin units; also called multiubiquitin chains

[2] = target: heat shock protein 70 inducible (Hsp70), endogenous (human, UniProt P0DMV8 2-641); experiment: cell-based or functional assay
[3] = target: T2, heat shock protein 70 cognate (Hsc70), endogenous (human, UniProt P11142 2-646); experiment: co-immunoprecipitation with anti-Flag M2 agarose from HEK293T lysate, 2D gel, MALDI-TOF MS (table of Flag-hFAF1 binding proteins)
T2 construct: In the 1D western blots it is detected together with Hsp70 by one anti-Hsc70/Hsp70 monoclonal antibody; statements on 'Hsc70/Hsp70' are written once for each of the two; also called member of Hsc70/Hsp70
Description: Protein spots detected in the autoradiogram were cut out from the corresponding silver stained gel and subjected to in-gel digestion with trypsin and mass peptide fingerprint analyses using MALDI-TOF MS.

[4] = target: bacterial Hsp70, DnaK (E. coli, UniProt P0A6Y8 2-638); experiment: not told (data not shown)
bacterial Hsp70, DnaK, sequence (P0A6Y8 2-638 limits assumed): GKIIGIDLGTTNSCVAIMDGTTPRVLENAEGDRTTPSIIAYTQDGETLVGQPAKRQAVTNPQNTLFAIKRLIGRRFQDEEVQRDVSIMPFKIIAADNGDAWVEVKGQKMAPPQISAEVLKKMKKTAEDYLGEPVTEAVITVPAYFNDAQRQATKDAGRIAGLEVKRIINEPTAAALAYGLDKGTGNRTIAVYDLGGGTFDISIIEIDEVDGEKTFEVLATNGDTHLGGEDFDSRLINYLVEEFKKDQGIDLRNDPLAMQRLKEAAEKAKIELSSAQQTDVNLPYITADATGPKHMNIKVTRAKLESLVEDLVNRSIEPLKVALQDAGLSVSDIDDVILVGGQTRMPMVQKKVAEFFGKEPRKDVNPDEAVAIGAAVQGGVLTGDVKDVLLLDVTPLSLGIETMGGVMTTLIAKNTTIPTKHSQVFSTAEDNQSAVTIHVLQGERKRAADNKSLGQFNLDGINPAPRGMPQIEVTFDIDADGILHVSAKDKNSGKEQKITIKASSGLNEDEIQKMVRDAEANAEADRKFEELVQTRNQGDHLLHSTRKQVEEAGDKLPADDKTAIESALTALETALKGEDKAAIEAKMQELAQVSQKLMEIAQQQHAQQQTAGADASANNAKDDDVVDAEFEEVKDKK

heat shock protein 70 inducible (Hsp70), endogenous, sequence (P0DMV8 2-641): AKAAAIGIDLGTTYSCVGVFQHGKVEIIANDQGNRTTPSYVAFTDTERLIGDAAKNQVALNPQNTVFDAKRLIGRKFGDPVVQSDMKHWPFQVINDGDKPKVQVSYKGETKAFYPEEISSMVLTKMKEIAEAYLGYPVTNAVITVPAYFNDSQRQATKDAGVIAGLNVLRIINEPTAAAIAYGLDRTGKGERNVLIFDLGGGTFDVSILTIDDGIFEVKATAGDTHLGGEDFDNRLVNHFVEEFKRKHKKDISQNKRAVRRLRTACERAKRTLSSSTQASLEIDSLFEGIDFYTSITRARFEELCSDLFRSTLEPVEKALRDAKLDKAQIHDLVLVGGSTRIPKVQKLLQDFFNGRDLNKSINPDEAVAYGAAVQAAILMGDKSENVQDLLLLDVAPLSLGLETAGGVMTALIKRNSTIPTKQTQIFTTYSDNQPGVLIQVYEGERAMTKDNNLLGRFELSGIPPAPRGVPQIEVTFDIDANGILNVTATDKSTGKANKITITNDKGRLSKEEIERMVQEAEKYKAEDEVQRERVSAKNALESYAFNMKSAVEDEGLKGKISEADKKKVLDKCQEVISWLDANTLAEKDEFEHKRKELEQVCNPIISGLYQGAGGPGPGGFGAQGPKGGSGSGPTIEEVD
T2 sequence (P11142 2-646 limits assumed): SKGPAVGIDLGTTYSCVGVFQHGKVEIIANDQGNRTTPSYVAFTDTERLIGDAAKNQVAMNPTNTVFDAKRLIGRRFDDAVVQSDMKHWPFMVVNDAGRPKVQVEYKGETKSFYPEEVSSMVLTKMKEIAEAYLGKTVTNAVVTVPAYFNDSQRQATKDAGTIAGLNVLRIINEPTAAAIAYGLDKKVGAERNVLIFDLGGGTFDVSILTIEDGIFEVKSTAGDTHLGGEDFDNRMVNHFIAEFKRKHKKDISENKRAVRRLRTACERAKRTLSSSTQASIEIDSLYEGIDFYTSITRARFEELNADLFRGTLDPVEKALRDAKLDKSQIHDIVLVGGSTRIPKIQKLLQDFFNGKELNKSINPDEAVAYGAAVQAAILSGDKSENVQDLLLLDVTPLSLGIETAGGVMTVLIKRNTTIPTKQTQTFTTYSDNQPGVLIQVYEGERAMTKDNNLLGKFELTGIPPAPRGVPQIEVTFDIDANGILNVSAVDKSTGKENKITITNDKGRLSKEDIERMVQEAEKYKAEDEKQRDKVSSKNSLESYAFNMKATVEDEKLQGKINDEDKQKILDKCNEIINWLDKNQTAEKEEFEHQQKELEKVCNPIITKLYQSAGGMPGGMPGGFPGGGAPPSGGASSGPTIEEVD

B1: GST-hFAF1[82-650] (other)
chain: SAFRPVMPSRQIVERQPRMLDFRVEYRDRNVDVVLEDTCTVGEIKQILENELQIPVSKMLLKGWKTGDVEDSTVLKSLHLPKNNSLYVLTPDLPPPSSSSHAGALQESLNQNFMLIITHREVQREYNLNFSGSSTIQEVKRNVYDLTSIPVRHQLWEGWPTSATDDSMCLAESGLSYPCHRLTVGRRSSPAQTREQSEEQITDVHMVSDSDGDDFEDATEFGVDDGEVFGMASSALRKSPMMPENAENEGDALLQFTAEFSSRYGDCHPVFFIGSLEAAFQEAFYVKARDRKLLAIYLHHDESVLTNVFCSQMLCAESIVSYLSQNFITWAWDLTKDSNRARFLTMCNRHFGSVVAQTIRTQKTDQKPLFLIIMGKRSSNEVLNVIQGNTTVDELMMRLMAAMEIFTAQQQEDIKDGDEREARENVKREQDEAYRLSLEADRAKREAREREMAEQFRLEQIRKEQEEEREAIRLSLEQALPPEPKEENAEPVSKLRIRTPSGEFLERRFLASNKLQIVFDFVASKGFPWDEYKLLSTFPRRDVTQLDPNKSLLEVKLFPQETLFLEAKE
notes: Immobilized on glutathione sepharose; also called amino acid 82-650; not shown: glutathione S-transferase (GST) tag
- binding result [1]: no binding

B2: Flag-tagged hFAF1 (human Fas associated factor 1, full form) (other)
chain: MASNMDREMILADFQACTGIENIDEAITLLEQNNWDLVAAINGVIPQENGILQSEYGGETIPGPAFNPASHPASAPTSSSSSAFRPVMPSRQIVERQPRMLDFRVEYRDRNVDVVLEDTCTVGEIKQILENELQIPVSKMLLKGWKTGDVEDSTVLKSLHLPKNNSLYVLTPDLPPPSSSSHAGALQESLNQNFMLIITHREVQREYNLNFSGSSTIQEVKRNVYDLTSIPVRHQLWEGWPTSATDDSMCLAESGLSYPCHRLTVGRRSSPAQTREQSEEQITDVHMVSDSDGDDFEDATEFGVDDGEVFGMASSALRKSPMMPENAENEGDALLQFTAEFSSRYGDCHPVFFIGSLEAAFQEAFYVKARDRKLLAIYLHHDESVLTNVFCSQMLCAESIVSYLSQNFITWAWDLTKDSNRARFLTMCNRHFGSVVAQTIRTQKTDQKPLFLIIMGKRSSNEVLNVIQGNTTVDELMMRLMAAMEIFTAQQQEDIKDGDEREARENVKREQDEAYRLSLEADRAKREAREREMAEQFRLEQIRKEQEEEREAIRLSLEQALPPEPKEENAEPVSKLRIRTPSGEFLERRFLASNKLQIVFDFVASKGFPWDEYKLLSTFPRRDVTQLDPNKSLLEVKLFPQETLFLEAKE
notes: Transiently overexpressed in HEK293T cells and pulled out of the lysate with anti-Flag M2 agarose; also called Flag-hFAF1; pFlag-CMV-2/hFAF1; not shown: Flag tag from the pFlag-CMV-2 vector
- SAPK/JNK activity after heat shock [2]: 16 fold
- binding result [3]: binds

B3: purified recombinant hFAF1 (other)
chain: B2 chain
notes: also called hFAF1 cleaved by thrombin from GST-hFAF1
- binding result [4]: binds

B4: Flag-hFAF1[366-650] (other, not shown: small tags and cut ends)
chain: YVKARDRKLLAIYLHHDESVLTNVFCSQMLCAESIVSYLSQNFITWAWDLTKDSNRARFLTMCNRHFGSVVAQTIRTQKTDQKPLFLIIMGKRSSNEVLNVIQGNTTVDELMMRLMAAMEIFTAQQQEDIKDGDEREARENVKREQDEAYRLSLEADRAKREAREREMAEQFRLEQIRKEQEEEREAIRLSLEQALPPEPKEENAEPVSKLRIRTPSGEFLERRFLASNKLQIVFDFVASKGFPWDEYKLLSTFPRRDVTQLDPNKSLLEVKLFPQETLFLEAKE
- SAPK/JNK activity after heat shock [2]: 13 fold
